Measured values: the nanobody polyreactivity screen of Harvey et al. (2022)

Test: yeast display, Sf9 membrane polyspecificity reagent, FACS + sequencing; frameworks hold sequencing errors
Outline: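 Galactose induction of a Saccharomyces cerevisiae BJ5465 synthetic nanobody display library ran 36–48 hours. The cells were then stained for 1 hour at 4 °C with 10% biotinylated, detergent-solubilized Sf9 membrane reagent, pulled down on streptavidin microbeads and FACS-sorted into low and high (top ~1%) gates on expression and reagent-binding fluorescence. Labels for polyreactivity follow the gate of origin.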

Sequence	polyreactivity (PSR sort gate)
QVQLVESGGGLVKAGCSLRLICAASGSIFYQYAMGWNRQAPGNVRELVAAITRRGSRTYYADSVKGRFTISRDNAKNTVYLQMNSLKPEDTAVYYCAAGSFYGIYYYRTDDYWGQGTQVTVSS	high polyreactivity
QVQLVESGGGLVKAGGILRLSCAASGYIFVRYAMGWYRQAPGKERELVAAISYRGGSTYADSVKGRFTISRDNAKNTVYLQMNRLKPEDTAVYYCAAQRWYVYGQKYHYGYWGQVTQVTVSS	high polyreactivity
QVQLVESGGGLVKAGGSIRLSCAASGSIFTWYAMGWYRQAPGKESELVAAISEDGGSTYYADSVKGRFTISRDNAKNSVFLQMNSLKPEDTAVYYCATPVASVTGYDYWGQGTQVTVSS	low polyreactivity
QVQLVESGGGLVKAGGSLLLSCAASGRTIAYNAMGWYRQATGKERELVDAISNSGGRTYYADSVKGRFTISRDNAKNTVYLQMKSLKPEDTAVYYCAAYPVYRSVVSAYGYNYWGQGTQVTVSS	high polyreactivity
QVQLVESGGGLVKAGGSLLLSCAASGSTFRVNFMGWYRKSPGKERELVAAITTSGGSKYYADSVKGRFTITRDNAKNSVFLQMNSEKLDDTAVYFCNTTYPSGWGPETDYWGQGIQVTVSS	low polyreactivity
QVQLVESGGGLVKAGGSLRLRCAAAGLILYPYAMGWYRQAPGKESELVAAITSDGSTYYADSVKGRFTISRVNAKNTVYLQMNSLKQEDTAVYYCAVVVAYFDDDYGLSWFYEYDYWGQGTQVTVSS	low polyreactivity
QVQLVESGGGLVKAGGSLRLSCAASGFIFGYNAMGWDRQAPGKERELVAVITDSSDSTYYADSVKGRFTISRDNAMNTVYLQMNSLKPEDTAVYYCDTDYGYAGDYWGQGTQVTVSS	low polyreactivity
QVQLVESGGGLVKAGGSLRLSCAASGFILRAYAMGWYRQAPGKEREFVAAITRRGGRTYYADSVKGRFTISRDNAKKTVSLQMYSLKPEDTAVYYCNRVERRGTYDYWGQGTQVTVSS	high polyreactivity
QVQLVESGGGLVKAGGSLRLSCAASGFIYKFYAMGWYRQAPRKERELVAAINYSGGSTYYADSVKGRFTISRDNAKNTVYLKMNSLKPEDTAVFYCNALYTYGWYSDDYWGQGTQVTVSS	high polyreactivity
QVQLVESGGGLVKAGGSLRLSCAASGFTFPQYAMGWYRQAPGKESELVAAISKRSGGTRYADSVKGRFTISRDNAKNTVYLQMNSLKPEDTAVYYCAAATPSGYYYWGQGTQVTVSS	high polyreactivity
QVQLVESGGGLVKAGGSLRLSCAASGFTFRRNAMGWYRQAPGKERELVAAITYNGGTTYYADSVKGRFTISRDNAKNTVYLQMNSLKPEDTAVDYCNAPYGRQGYDYWGQGTQVTVSS	low polyreactivity
QVQLVESGGGLVKAGGSLRLSCAASGGTFPLYAMGWYRQAPGKERELVAAIRWSGGRTYYADSVKGRFTISRDNAKNTVYLQMNSLKPEDTAVYYCSADYDDGWGYDYWGQGTQVTVSS	high polyreactivity
QVQLVESGGGLVKAGGSLRLSCAASGNIFRRYAMGWYRQARGKERELVAAITWRGGNTYYADSVKGRFTISRDNAKNTVYLQMNCLKPEDTAVYYCNRVYRQRLGRDYWGLGTQVTVSS	high polyreactivity
QVQLVESGGGLVKAGGSLRLSCAASGRIDWYYAMGLYRQAPRKERDLVAAISRSGGTTYYADSVKGRFTISRDNAKNSVFLQMNSLQPEDTEVYYCAAVFHAYTGYEAWEEYEYWGQGTQVTVSA	high polyreactivity
QVQLVESGGGLVKAGGSLRLSCAASGRIFRYYAMGRYRQAPGKEREFVAAISTDGGRTYYADSVKGRFTISRDNAKNTVYLQMNSLKPEDTAVYYCAIYPGISGYNYWGQGTQVTVSS	high polyreactivity
QVQLVESGGGLVKAGGSLRLSCAASGRTFFRNAMGWYRQAPGKEREFVAAINSSGGSTYYADSVKGRFTISRDNAKNTVYFQMNSLKPEDTAVYYCARYHYPFYKPYGFGYWGQGTQVTVSS	high polyreactivity
QVQLVESGGGLVKAGGSLRLSCAASGSIYTNAMGWYRQAPGKERELVAAISWSGGRTYYADSVKGRFTISRDNAKNTVYLQINSLKPEDTAVYYCNPRGTRIASGHYYWGQGTLVTVSS	high polyreactivity
QVQLVESGGGLVKAGGSLRLSCAASGSTFPLYAMGWYRQAPGKEREFVAAIRWIGGSTYYADSVKGRFTISRDNAKNTVYLQMNSLKPEDTAVYFCAADYVVSAFDYWGQGTQVTVSS	low polyreactivity
QVQLVESGGGLVKAGGSLRLSCAASGSTFYNYAMGWYRQAPGKERELVAAISTRGGSTYYADSVKGRFTISRDNAKNTVYLQMNSLKPEDTAVYYCAADGRGGHDDYWGQGTQVTVSS	high polyreactivity
QVQLVESGGGLVKAGGSLRLSCAASGSTIGGNAMVWYRQAPGKERELVASITRSGGSTYYADSVKGRFTISRDNAKNNVYLQMNSLKPEDSAVYYCAAGKWYRSPWKYDYWGQVTQVTVSS	low polyreactivity
QVQLVESGGGLVKAGGSLRLSCAASGSTSQVNDMGWYRQAPGTERELVGAISSTGDRTYYADSVKGRFTISRDNAKNNVYLQMNSLKPDDTAVYYCANDPFPFPCGDYWGQGTQVTVSS	low polyreactivity
QVQLVESGGGLVKAGGSLRLSCAASGYTFGKYAMGWYRQAPGKERELVAAISWSGGSTYYADSVKGRFRISRDNAKNTVYLQMNSLKPEDTAVYYCNKGYFGRYGYWGQGTQVTVSS	high polyreactivity
QVQLVESGGGLVKAGGSLRLSCASSGRIFRYYTMGWYRQAPGKERELVAAISTSDDSTNYADSVKGRFTISRDNAKNTVYLQMNSLKPEDTAVYYCAADQSRVGSYQDYDYWGQGTQVTVSS	low polyreactivity
QVQLVESGGGLVKARGSLLLSCAASGFTFPYNAMGWYRQAPGKDRELVAAISWSGGSTYYADSVKGRFTLSRDNAKNTVYLQMNSLKPEDTAVYYCAASYWWIPMEYWGQVTQVTVSS	high polyreactivity
QVQLVESGGGLVKARGSLRLSCAASGFTFGSYAMGWYRQAPGKERELVAAITRGSGGTYYADSVKGRFTISRDNAKNTVYVQMNSLKPEDTAVYNCASCSRSRGALRFAHFDYWGQGTQGTVSS	high polyreactivity
QVQLVESGGGLVLAGGRLRLSCAASGSTFGYYAMGWYRQAHGKERELVAAISQGAGRTYYADSVKGRFTISRDNAKNTDYLQMNSLKPEDSAVYYFAASVTVHRWAYGYWGQGTQVTVSS	high polyreactivity
QVQLVESGGGLVLAGGSLRLSCAASGGTFARYAMGWYRQAPGKERELVAAISRGGSTNYADSVKGRFTISRDNAKNTVYLQMNSLKPEDTAVYYCAAGSRRAAWYDYSYPYGYWGQGTQVTVSS	high polyreactivity
QVQLVESGGGLVLAGGSLRLSCAASGRIFIGNAMGWYRQAPGKERELVAAISKRGGSTYYADSVKGRFTISRDNAKNTVYLQMISLKPEDTAVYYCNKEPLYREFDYWGQGTQVTVSS	low polyreactivity
QVQLVESGGGLVLAGGSLRLSCAASGRIFLRNAMGWYRQAPGKVRELVATITSRGGSTYYADSVKGRFTISRDKAKNTVYLQMNSLKPEDTAVYYCAADPRRYRGFGYVYGGFYYWGQGTQVTVSS	low polyreactivity
QVQLVESGGGLVLAGGSLRLSCAASGRIFTNNVMGWYRQAPGKERELVAAISRSGGRTYYADSVKGRFTISRDNAKNTVYLQMNSLKPEDTAVYYCAAVYQKAATDKYESVYESYYWGQGTQVTVSS	high polyreactivity
